Square brackets hold non-standard residues; d marks the D form. Ends that are not written are not given here. Nle = CCCC[C@H](N)C(=O)O
Experiments:
hMC4-R = molecular target: T1, hMC4-R (Homo sapiens, UniProt P32245); assay: competitive inhibition binding assay, 125I-NDP-alpha-MSH, hMC4-R membranes; conditions: 1 μM test peptide; 0.4 nM 125I-NDP-alpha-MSH; hMC4-R membranes
T1 construct: expressed in transfected cells
Protocol: (§1) The competitive inhibition binding assay was conducted using membranes prepared from hMC3-R, hMC4-R, hMC5-R, and B-16 mouse melanoma cells (containing MC1-R) using 0.4 nM ^125I-NDP-alpha-MSH (New England Nuclear, Boston, Mass., USA) in 50 mM HEPES buffer containing 1 mM MgCl2, 2 mM CaCl2, and 5 mM KCl, at pH 7.2. The assay tube also contained a chosen concentration of the test peptide of this invention complexed to a rhenium metal ion, typically at a 1 μM concentration, for determining its efficacy in inhibiting the binding of ^125I-NDP-alpha-MSH to its receptor. Non-specific binding was measured by complete inhibition of binding of ^125I-NDP-alpha-MSH in the assay with the presence of 1 μM alpha-MSH. Incubation was for 90 minutes at room temperature, after which the assay mixture was filtered and the membranes washed three times with ice cold buffer. The filter was dried and counted in a gamma counter for remaining radioactivity bound to the membranes. 100% specific binding was defined as the difference in radioactivity (cpm) bound to cell membranes in the absence and presence of 1 μM alpha-MSH. The cpm obtained in presence of test compounds were normalized with respect to 100% specific binding to determine the percent inhibition of ^125I-NDP-alpha MSH binding. Each assay was conducted in triplicate and the actual mean valves are described.

hMC3-R = molecular target: T2, hMC3-R (Homo sapiens, UniProt P41968); assay: competitive inhibition binding assay, 125I-NDP-alpha-MSH, hMC3-R membranes; conditions: 1 μM test peptide; 0.4 nM 125I-NDP-alpha-MSH; hMC3-R membranes
T2 construct: expressed in transfected cells
T2 sequence (P41968 whole entry): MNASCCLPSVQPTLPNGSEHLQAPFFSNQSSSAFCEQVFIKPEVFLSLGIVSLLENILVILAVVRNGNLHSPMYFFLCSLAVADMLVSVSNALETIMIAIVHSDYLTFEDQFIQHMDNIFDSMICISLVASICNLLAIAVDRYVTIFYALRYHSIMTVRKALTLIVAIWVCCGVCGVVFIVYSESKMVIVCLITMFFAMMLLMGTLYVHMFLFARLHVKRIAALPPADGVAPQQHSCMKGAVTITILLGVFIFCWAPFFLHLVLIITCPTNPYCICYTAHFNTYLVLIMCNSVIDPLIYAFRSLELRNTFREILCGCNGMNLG
Protocol: as §1

hMC5-R = molecular target: T3, hMC5-R (Homo sapiens, UniProt P33032); assay: competitive inhibition binding assay, 125I-NDP-alpha-MSH, hMC5-R membranes; conditions: 1 μM test peptide; 0.4 nM 125I-NDP-alpha-MSH; hMC5-R membranes
T3 construct: expressed in transfected cells
T3 sequence (P33032 whole entry): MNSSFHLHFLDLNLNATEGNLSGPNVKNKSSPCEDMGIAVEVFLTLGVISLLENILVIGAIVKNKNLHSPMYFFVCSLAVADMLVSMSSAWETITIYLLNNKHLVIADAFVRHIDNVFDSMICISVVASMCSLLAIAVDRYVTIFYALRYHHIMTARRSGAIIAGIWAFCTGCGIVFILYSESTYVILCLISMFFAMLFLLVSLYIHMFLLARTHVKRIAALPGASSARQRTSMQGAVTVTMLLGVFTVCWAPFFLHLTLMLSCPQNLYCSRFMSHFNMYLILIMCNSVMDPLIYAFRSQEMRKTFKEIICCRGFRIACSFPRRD
Protocol: as §1

MC1-R = molecular target: T4, MC1-R (Mus musculus, UniProt Q01727); assay: competitive inhibition binding assay, 125I-NDP-alpha-MSH, B-16 mouse melanoma cell membranes; conditions: 1 μM test peptide; 0.4 nM 125I-NDP-alpha-MSH; B-16 mouse melanoma cell membranes
T4 construct: membranes prepared from hMC3-R, hMC4-R, hMC5-R, and B-16 mouse melanoma cells (containing MC1-R); endogenous in cells; host or cells: B-16 mouse melanoma cells (membranes)
T4 sequence (Q01727 whole entry): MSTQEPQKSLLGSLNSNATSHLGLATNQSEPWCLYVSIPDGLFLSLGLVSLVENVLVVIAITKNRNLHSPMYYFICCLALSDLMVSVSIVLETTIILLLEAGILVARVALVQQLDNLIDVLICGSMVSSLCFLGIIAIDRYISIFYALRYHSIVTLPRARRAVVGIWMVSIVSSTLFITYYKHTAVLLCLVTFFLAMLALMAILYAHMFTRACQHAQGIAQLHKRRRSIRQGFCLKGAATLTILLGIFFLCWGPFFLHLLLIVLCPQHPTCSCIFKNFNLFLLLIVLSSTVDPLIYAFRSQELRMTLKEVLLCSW
Protocol: as §1

bombesin receptor = assay: competitive binding assay, 125I-Bombesin, rat brain membranes; conditions: inhibition of 0.01 nM 125I-Bombesin binding; rat brain membranes; test concentration not given
Protocol: Rat brain membranes were utilized as the source of bombesin receptor. The competitive binding assay was performed using a procedure as described by Moody T W, Perk C B, Rivier J, Brown, M R. (Proc Natl Acad Sci USA. 75:5372-5376, […]) and adapted to a 96 well format. An aliquot of membranes taken in assay buffer (50 mM Tris and HCl, pH 7.4 containing 1 mg/mL BSA and 2 μg/mL bacitracin) was incubated with 0.01 nM of ^125I-Bombesin with or without varying concentrations of the test compound for 60 min at 4° C. The incubation was terminated by rapid filtration of the assay mixture, followed by washing the filters with ice-cold buffer. The filters were dried and counted in a gamma counter for retained radioactivity. Non-specific binding was measured by including 1 μM Bombesin in the assay tube. The assay was performed in triplicate and results calculated to determine percentage inhibition of the ^125I-Bombesin binding to its receptors by a test compound. The parent polypeptide is shown in Table 6, with metallopeptides having Cys inserted as shown.

T1 sequence (P32245 whole entry): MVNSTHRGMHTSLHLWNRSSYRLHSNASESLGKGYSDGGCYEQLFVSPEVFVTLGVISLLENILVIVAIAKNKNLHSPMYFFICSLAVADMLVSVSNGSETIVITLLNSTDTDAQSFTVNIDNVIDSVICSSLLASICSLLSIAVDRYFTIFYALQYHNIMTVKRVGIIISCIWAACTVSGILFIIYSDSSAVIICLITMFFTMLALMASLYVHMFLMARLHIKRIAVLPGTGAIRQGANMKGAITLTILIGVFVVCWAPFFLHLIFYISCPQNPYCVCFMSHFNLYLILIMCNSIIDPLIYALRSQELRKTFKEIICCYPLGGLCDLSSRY

## Ac-Ser-Tyr-Cys-Ser-Nle-Glu-His-Phe-Arg-Trp-Gly-Lys-Pro-Val-NH2 (chain 1 Ac-SYCS[Nle]; chain 2 EHFRWGKPV-NH2; not fully specified (bridges); printed as Ac-Ser-Tyr-Cys-Ser-Nle-Glu-His-Phe-Arg-Trp-Gly-Lys-Pro-Val-NH2; also: oxorhenium(V) N3S1 chelate (Re(V)=O)) [1-12]
hMC4-R
  % Inhibition at 1 μM at Melanocortin Receptor 4: 26%
hMC3-R
  % Inhibition at 1 μM at Melanocortin Receptor 3: 15%
hMC5-R
  % Inhibition at 1 μM at Melanocortin Receptor 5: 19%
MC1-R
  % Inhibition at 1 μM at Melanocortin Receptor 1: 96%

## Ac-Ser-Tyr-D-Cys-Ser-Nle-Glu-His-Phe-Arg-Trp-Gly-Lys-Pro-Val-NH2 (Ac-SY[dC]S[Nle]EHFRWGKPV-NH2; not fully specified (bridges); printed as Ac-Ser-Tyr-D-Cys-Ser-Nle-Glu-His-Phe-Arg-Trp-Gly-Lys-Pro-Val-NH2; numbers in words are those of the source; also: oxorhenium(V) N3S1 chelate (Re(V)=O)) [2-12]
hMC4-R
  % Inhibition at 1 μM at Melanocortin Receptor 4: 47%
hMC3-R
  % Inhibition at 1 μM at Melanocortin Receptor 3: 21%
hMC5-R
  % Inhibition at 1 μM at Melanocortin Receptor 5: 17%
MC1-R
  % Inhibition at 1 μM at Melanocortin Receptor 1: 97%

## Ac-Ser-Tyr-Ser-Cys-Nle-Glu-His-Phe-Arg-Trp-Gly-Lys-Pro-Val-NH2 (chain 1 Ac-SYSC[Nle]; chain 2 EHFRWGKPV-NH2; not fully specified (bridges); printed as Ac-Ser-Tyr-Ser-Cys-Nle-Glu-His-Phe-Arg-Trp-Gly-Lys-Pro-Val-NH2; also: oxorhenium(V) N3S1 chelate (Re(V)=O)) [1-11]
hMC4-R
  % Inhibition at 1 μM at Melanocortin Receptor 4: 21%
hMC3-R
  % Inhibition at 1 μM at Melanocortin Receptor 3: 18%
hMC5-R
  % Inhibition at 1 μM at Melanocortin Receptor 5: 6%
MC1-R
  % Inhibition at 1 μM at Melanocortin Receptor 1: 95%

## Ac-Ser-Tyr-Ser-D-Cys-Nle-Glu-His-Phe-Arg-Trp-Gly-Lys-Pro-Val-NH2 (Ac-SYS[dC][Nle]EHFRWGKPV-NH2; not fully specified (bridges); printed as Ac-Ser-Tyr-Ser-D-Cys-Nle-Glu-His-Phe-Arg-Trp-Gly-Lys-Pro-Val-NH2; numbers in words are those of the source; also: oxorhenium(V) N3S1 chelate (Re(V)=O)) [2-11]
hMC4-R
  % Inhibition at 1 μM at Melanocortin Receptor 4: 37%
hMC3-R
  % Inhibition at 1 μM at Melanocortin Receptor 3: 5%
hMC5-R
  % Inhibition at 1 μM at Melanocortin Receptor 5: 0%
MC1-R
  % Inhibition at 1 μM at Melanocortin Receptor 1: 95%

## Ac-Ser-Tyr-Ser-Nle-Cys-Glu-His-Phe-Arg-Trp-Gly-Lys-Pro-Val-NH2 (Ac-SYS[Nle]CEHFRWGKPV-NH2; not fully specified (bridges); printed as Ac-Ser-Tyr-Ser-Nle-Cys-Glu-His-Phe-Arg-Trp-Gly-Lys-Pro-Val-NH2; numbers in words are those of the source; also: oxorhenium(V) N3S1 chelate (Re(V)=O)) [1-10]
hMC4-R
  % Inhibition at 1 μM at Melanocortin Receptor 4: 7%
hMC3-R
  % Inhibition at 1 μM at Melanocortin Receptor 3: 0%
hMC5-R
  % Inhibition at 1 μM at Melanocortin Receptor 5: 5%
MC1-R
  % Inhibition at 1 μM at Melanocortin Receptor 1: 72%

## Ac-Ser-Tyr-Ser-Nle-D-Cys-Glu-His-Phe-Arg-Trp-Gly-Lys-Pro-Val-NH2 (Ac-SYS[Nle][dC]EHFRWGKPV-NH2; numbers in words are those of the source; also: oxorhenium(V) N3S1 chelate via Cys (Re(V)=O)) [2-10]
hMC4-R
  % Inhibition at 1 μM at Melanocortin Receptor 4: 18%
hMC3-R
  % Inhibition at 1 μM at Melanocortin Receptor 3: 0%
hMC5-R
  % Inhibition at 1 μM at Melanocortin Receptor 5: 0%
MC1-R
  % Inhibition at 1 μM at Melanocortin Receptor 1: 65%

## Ac-Ser-Tyr-Ser-Nle-Glu-Cys-His-Phe-Arg-Trp-Gly-Lys-Pro-Val-NH2 (Ac-SYS[Nle]ECHFRWGKPV-NH2; not fully specified (bridges); printed as Ac-Ser-Tyr-Ser-Nle-Glu-Cys-His-Phe-Arg-Trp-Gly-Lys-Pro-Val-NH2; numbers in words are those of the source; also: oxorhenium(V) N3S1 chelate (Re(V)=O)) [1-9]
hMC4-R
  % Inhibition at 1 μM at Melanocortin Receptor 4: 3%
hMC3-R
  % Inhibition at 1 μM at Melanocortin Receptor 3: 0%
hMC5-R
  % Inhibition at 1 μM at Melanocortin Receptor 5: 6%
MC1-R
  % Inhibition at 1 μM at Melanocortin Receptor 1: 74%

## Ac-Ser-Tyr-Ser-Nle-Glu-D-Cys-His-Phe-Arg-Trp-Gly-Lys-Pro-Val-NH2 (Ac-SYS[Nle]E[dC]HFRWGKPV-NH2; numbers in words are those of the source; also: oxorhenium(V) N3S1 chelate via Cys (Re(V)=O)) [2-9]
hMC4-R
  % Inhibition at 1 μM at Melanocortin Receptor 4: 35%
hMC3-R
  % Inhibition at 1 μM at Melanocortin Receptor 3: 13%
hMC5-R
  % Inhibition at 1 μM at Melanocortin Receptor 5: 2%
MC1-R
  % Inhibition at 1 μM at Melanocortin Receptor 1: 92%

## Ac-Ser-Tyr-Ser-Nle-Glu-His-Cys-Phe-Arg-Trp-Gly-Lys-Pro-Val-NH2 (Ac-SYS[Nle]EHCFRWGKPV-NH2; not fully specified (bridges); printed as Ac-Ser-Tyr-Ser-Nle-Glu-His-Cys-Phe-Arg-Trp-Gly-Lys-Pro-Val-NH2; numbers in words are those of the source; also: oxorhenium(V) N3S1 chelate (Re(V)=O)) [1-8]
hMC4-R
  % Inhibition at 1 μM at Melanocortin Receptor 4: 0%
hMC3-R
  % Inhibition at 1 μM at Melanocortin Receptor 3: 0%
hMC5-R
  % Inhibition at 1 μM at Melanocortin Receptor 5: 1%
MC1-R
  % Inhibition at 1 μM at Melanocortin Receptor 1: 42%

## Ac-Ser-Tyr-Ser-Nle-Glu-His-D-Cys-Phe-Arg-Trp-Gly-Lys-Pro-Val-NH2 (CFRWGKPV; Ac-Ser-Tyr-Ser-Nle-Glu-His N-term; D-residue; amide; printed: Cys-Phe-Arg-Trp-Gly-Lys-Pro-Val-) [2-8]
hMC4-R
  % Inhibition at 1 μM at Melanocortin Receptor 4: 25%
hMC3-R
  % Inhibition at 1 μM at Melanocortin Receptor 3: 0%
hMC5-R
  % Inhibition at 1 μM at Melanocortin Receptor 5: 29%
MC1-R
  % Inhibition at 1 μM at Melanocortin Receptor 1: 69%

## Ac-Ser-Tyr-Ser-Nle-Glu-His-Phe-Arg-Cys-Trp-Gly-Lys-Pro-Val-NH2 (Ac-SYS[Nle]EHFRCWGKPV-NH2; not fully specified (bridges); printed as Ac-Ser-Tyr-Ser-Nle-Glu-His-Phe-Arg-Cys-Trp-Gly-Lys-Pro-Val-NH2; numbers in words are those of the source; also: oxorhenium(V) N3S1 chelate (Re(V)=O)) [1-6]
hMC4-R
  % Inhibition at 1 μM at Melanocortin Receptor 4: 0%
hMC3-R
  % Inhibition at 1 μM at Melanocortin Receptor 3: 0%
hMC5-R
  % Inhibition at 1 μM at Melanocortin Receptor 5: 0%
MC1-R
  % Inhibition at 1 μM at Melanocortin Receptor 1: 29%

## Ac-Ser-Tyr-Ser-Nle-Glu-His-Phe-Arg-D-Cys-Trp-Gly-Lys-Pro-Val-NH2 (chain 1 Ac-SYS[Nle]EHFR; chain 2 [dC]WGKPV-NH2; not fully specified (bridges); numbers in words are those of the source; also: oxorhenium(V) N3S1 chelate (Re(V)=O)) [2-6]
hMC4-R
  % Inhibition at 1 μM at Melanocortin Receptor 4: 6%
hMC3-R
  % Inhibition at 1 μM at Melanocortin Receptor 3: 2%
hMC5-R
  % Inhibition at 1 μM at Melanocortin Receptor 5: 6%
MC1-R
  % Inhibition at 1 μM at Melanocortin Receptor 1: 46%

## Ac-Ser-Tyr-Ser-Nle-Glu-His-Phe-Arg-Trp-Cys-Gly-Lys-Pro-Val-NH2 (Ac-SYS[Nle]EHFRWCGKPV-NH2; not fully specified (bridges); printed as Ac-Ser-Tyr-Ser-Nle-Glu-His-Phe-Arg-Trp-Cys-Gly-Lys-Pro-Val-NH2; numbers in words are those of the source; also: oxorhenium(V) N3S1 chelate (Re(V)=O)) [1-5]
hMC4-R
  % Inhibition at 1 μM at Melanocortin Receptor 4: 0%
hMC3-R
  % Inhibition at 1 μM at Melanocortin Receptor 3: 0%
hMC5-R
  % Inhibition at 1 μM at Melanocortin Receptor 5: 0%
MC1-R
  % Inhibition at 1 μM at Melanocortin Receptor 1: 57%

## Trp-Ala-Val-Cys-NH2 (WAVC-NH2; not fully specified (bridges); printed as Trp-Ala-Val-Cys-NH2; also: oxorhenium(V) N3S1 chelate (Re=O) with Cys) [11-14]
Bombesin receptor
  % Inhibition: 8%

## [dF]QWA[dV]CHLL-NH2 [10-3]
Bombesin receptor
  % Inhibition: 7%

— patent publication US7351690B2, “Knockout identification of target-specific sites in peptides” (priority 2000, dated 2008)
